{"source": "patent US20190040156A1", "about": "(Eli Lilly, published 2019)", "binders": {"B1": {"name": "exemplified IgG bispecific antibody (anti-TNFα / anti-IL23p19) (bispecific antibody)", "heavy 1": "not shown", "light 1": "not shown", "heavy 2": "QVQLVQSGAEVKKPGSSVKVSCKASGYPFTRYVMHWVRKAPGQGLEWMGYINPYNDGVNYNEEFKGRVTITADTSTSTAYMELSSLRSEDTAVYYCARNWDTGLWGQGTTVTVSSASTKGPSVFPLAPSSKSTSGGTAALGCLVKDYFPEPVTVSWNSGALTSGVATGPAVLQSSGLYSLSSVVTVPSSSLGTQTYICNVNHKPSNTKVDKKVEPKSCDKTHTCPPCPAPELLGGPSVFLFPPKPKDTLMISRTPEVTCVVVDVSHEDPEVKFNWYVDGVEVHNAKTKPREEQYNSTYRVVSVLTVLHQDWLNGKEYKCKVSNKALPAPIEKTISKAKGQPREPQVSTLPPSREEMTKNQVSLMCLVYGFYPSDIAVEWESNGQPENNYKTTPPVLDSDGSFFLYSVLTVDKSRWQQGNVFSCSVMHEALHNHYTQKSLSLSPG", "light 2": "RIQMTQSPSSLSASVGDRVTITCKASDHIGKFLTWYQDKPGKAPKLLIYGATSKLTGVPSRFSGSGSGTDFTLTISSLQPEDFATYYCQQYWSTPFTFGGGTKVEIKGQPKAAPSVTLFPPSSEELQANKATLVCYISDFYPGAVTVAWKADSSPVKAGVETTTPSKQSNNKYAAWSYLSLTPEQWKSHRSYSCQVTHEGSTVEKTVAPTEC", "modifications": "N-terminal glutamine (residue 1) may be converted to pyroglutamic acid; C-terminal lysine (residue 445) may be truncated post-translationally; C-terminal lysine (residue 451) may be truncated post-translationally", "notes": "Heterodimeric IgG1 of four different chains; also called exemplified bispecific antibody; IgG bispecific antibody of the present invention"}}, "key": {"human TNFα [1]": {"target": "T1, human TNFα (human, UniProt P01375 77-233)", "T1 construct": "also called recombinant human TNFα; soluble human TNFα", "T1 sequence (P01375 77-233 limits assumed)": "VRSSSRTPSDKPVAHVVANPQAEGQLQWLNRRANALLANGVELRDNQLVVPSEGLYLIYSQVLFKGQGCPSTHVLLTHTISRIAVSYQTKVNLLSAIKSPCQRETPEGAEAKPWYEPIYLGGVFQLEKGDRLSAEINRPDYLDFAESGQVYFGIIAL", "assay": "SPR, Biacore T200, antibody captured on protein A, antigen as analyte, 37 °C, 1:1 model, n=3", "protocol": "(§1) A CM4 chip (Biacore P/N BR-100534) containing immobilized protein A (generated using standard NHS-EDC amine coupling) on all four flow cells is used to employ a capture methodology. IgG bispecific antibody samples are prepared by dilution of 5 μg/mL into running buffer and approximately 100-150 RU is captured on the flow cells. […] Human TNFα are prepared at final concentrations of 50.0, 25.0, 12.5, 6.25, 3.12, 1.56, 0.78, 0.39, 0.19 and 0 (blank) nM by dilution into running buffer.\n(§2) Each analysis cycle consists of (1) capturing antibody samples on flow cells (Fc3); (2) injection of each human IL-23 concentration over the flow cells at 80 μL/min for 200 seconds followed by return to buffer flow for 900 seconds to monitor dissociation phase; (3) injection of each human TNFα concentration over the flow cells at 80 µL/min for 200 seconds followed by return to buffer flow for 900 seconds to monitor dissociation phase; (4) regeneration of chip surfaces with injection of 10 mM glycine, pH 2.0, for 30 seconds at 50 μL/min over all flow cells; and (5) equilibration of chip surfaces with a 50 μL (60-sec) injection of HBS-EP+ running buffer. Data are processed using standard reference-subtracted method fit to a 1:1 binding model using Biacore T200 Evaluation software, version 1.0, to determine the association rate (kₒₙ, M⁻¹s⁻¹ units), dissociation rate (koff, s⁻¹ units), and RUₘₐₓ (RU units). The equilibrium dissociation constant (KD) is calculated from the relationship KD=koff/kₒₙ, and is in molar units."}, "human IL-23 [2]": {"target": "T2, human IL-23 (human, UniProt Q9NPF7 20-189; P29460 23-328)", "T2 construct": "also called recombinant human IL-23; rhIL23", "T2 sequence (looked up) 1": "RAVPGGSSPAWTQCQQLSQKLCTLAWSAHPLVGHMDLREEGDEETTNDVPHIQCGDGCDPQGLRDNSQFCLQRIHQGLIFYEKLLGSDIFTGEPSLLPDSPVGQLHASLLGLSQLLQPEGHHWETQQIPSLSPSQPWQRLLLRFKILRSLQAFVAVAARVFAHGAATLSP", "T2 sequence (looked up) 2": "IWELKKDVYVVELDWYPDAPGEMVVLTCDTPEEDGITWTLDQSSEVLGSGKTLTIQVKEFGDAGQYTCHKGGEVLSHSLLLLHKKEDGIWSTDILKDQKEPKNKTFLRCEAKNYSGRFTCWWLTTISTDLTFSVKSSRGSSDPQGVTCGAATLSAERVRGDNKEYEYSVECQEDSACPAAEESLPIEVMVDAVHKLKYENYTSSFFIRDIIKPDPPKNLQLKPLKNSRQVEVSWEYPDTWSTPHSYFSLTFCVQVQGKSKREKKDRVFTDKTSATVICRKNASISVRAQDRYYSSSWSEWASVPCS", "assay": "SPR, Biacore T200, antibody captured on protein A, antigen as analyte, 37 °C, 1:1 model, n=3", "protocol": "as §1, §2"}, "human FcγRIIIa (CD16a)": {"target": "T3, human FcγRIIIa (CD16a) (human, UniProt P08637 17-208)", "T3 construct": "Soluble analyte in SPR", "T3 sequence (P08637 17-208 limits assumed)": "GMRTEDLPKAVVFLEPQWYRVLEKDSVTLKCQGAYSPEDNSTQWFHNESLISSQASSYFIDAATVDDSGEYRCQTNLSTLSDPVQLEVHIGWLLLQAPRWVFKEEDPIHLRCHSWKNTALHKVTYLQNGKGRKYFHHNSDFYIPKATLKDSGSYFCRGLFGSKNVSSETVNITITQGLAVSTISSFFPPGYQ", "assay": "SPR, Biacore T200, antibody captured on protein A, FcγR as analyte, 37 °C, N=3", "protocol": "(§3) A CM5 chip (Biacore P/N BR-100-50) containing immobilized protein A (generated using standard NHS-EDC amine coupling) on all four flow cells is used to employ a capture methodology. IgG bispecific antibody samples are prepared by dilution of approximately 5 μg/mL into running buffer and approximately 300 RU is captured on the flow cells. Human FcγRI (produced from transient CHO cells and purified using IMAC and size exclusion chromatography) is prepared at final concentrations of 200.00, 100.00, 50.00, 25.00, 12.50, 6.25, 3.12, 1.56, and 0.78 nM by two-fold serial dilution into running buffer. Human FcγRIIa, FcγRIIb and FcγRIIIa (produced from transient CHO cells and purified using IMAC and size exclusion chromatography) are prepared at final concentrations of 10,000.0, 5,000, 2,500, 1,250, 625, 313, 157, 78, and 39 nM by two-fold serial dilution into running buffer.\n(§4) Each analysis cycle consists of: (1) capturing antibody samples on flow cells; (2) injection of each human FcγRI, FcγRIIa, FcγRIIb and FcγRIIIa concentration over the flow cells at 40 μL/min for 60 seconds followed by return to buffer flow for 120 seconds to monitor dissociation phase; (3) regeneration of chip surfaces with injection of 10 mM glycine, pH 2.0. for 30 seconds at 50 μL/min over all flow cells; and (4) equilibration of chip surfaces with a 50 μL (60-sec) injection of HBS-EP+ running buffer. Data are processed using standard reference-subtracted method fit to a 1:1 binding model using Biacore T200 […] Evaluation software, version 1.0, to determine the equilibrium dissociation constant (KD) which is calculated from the relationship KD=koff/kₒₙ, and is in molar units."}, "human FcγRIIb (CD32b)": {"target": "T4, human FcγRIIb (CD32b) (human, UniProt P31994 43-217, limits assumed)", "T4 construct": "Soluble analyte in SPR", "T4 sequence (looked up)": "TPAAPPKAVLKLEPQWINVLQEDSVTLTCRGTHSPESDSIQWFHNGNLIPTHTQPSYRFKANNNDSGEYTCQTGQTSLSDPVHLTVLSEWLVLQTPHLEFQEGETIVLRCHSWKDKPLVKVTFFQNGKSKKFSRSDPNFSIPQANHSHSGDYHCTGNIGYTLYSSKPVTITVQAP", "assay": "SPR, Biacore T200, antibody captured on protein A, FcγR as analyte, 37 °C, N=3", "protocol": "as §3, §4"}, "human FcγRIIa (CD32a)": {"target": "T5, human FcγRIIa (CD32a) (human, UniProt P12318 34-217, limits assumed)", "T5 construct": "Soluble analyte in SPR", "T5 sequence (looked up)": "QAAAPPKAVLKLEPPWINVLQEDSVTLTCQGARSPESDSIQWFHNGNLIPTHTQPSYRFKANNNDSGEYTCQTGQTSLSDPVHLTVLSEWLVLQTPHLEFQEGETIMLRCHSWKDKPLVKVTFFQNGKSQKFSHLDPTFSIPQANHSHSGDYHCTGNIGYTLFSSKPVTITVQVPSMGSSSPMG", "assay": "SPR, Biacore T200, antibody captured on protein A, FcγR as analyte, 37 °C, N=3", "protocol": "as §3, §4"}, "human FcγRI (CD64)": {"target": "T6, human FcγRI (CD64) (human, UniProt P12314 16-288, limits assumed)", "T6 construct": "Soluble analyte in SPR", "T6 sequence (P12314 16-288 limits assumed)": "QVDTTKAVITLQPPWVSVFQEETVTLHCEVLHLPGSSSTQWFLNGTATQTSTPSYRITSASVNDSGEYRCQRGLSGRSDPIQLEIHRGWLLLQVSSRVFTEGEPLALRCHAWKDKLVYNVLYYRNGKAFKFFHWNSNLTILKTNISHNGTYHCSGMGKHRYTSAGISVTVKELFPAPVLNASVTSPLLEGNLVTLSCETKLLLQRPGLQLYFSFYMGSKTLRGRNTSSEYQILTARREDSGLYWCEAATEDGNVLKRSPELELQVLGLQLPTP", "assay": "SPR, Biacore T200, antibody captured on protein A, FcγR as analyte, 37 °C, N=3", "protocol": "as §3, §4"}, "human TNFα [3]": {"target": "T1, human TNFα", "assay": "cell-based or functional assay"}, "human IL-23 [4]": {"target": "T2, human IL-23", "assay": "cell-based or functional assay"}, "[5]": {"target": "non-cleavable form of human membrane TNFα on CHO cells (human, UniProt P01375 1-233)", "sequence (P01375 whole entry)": "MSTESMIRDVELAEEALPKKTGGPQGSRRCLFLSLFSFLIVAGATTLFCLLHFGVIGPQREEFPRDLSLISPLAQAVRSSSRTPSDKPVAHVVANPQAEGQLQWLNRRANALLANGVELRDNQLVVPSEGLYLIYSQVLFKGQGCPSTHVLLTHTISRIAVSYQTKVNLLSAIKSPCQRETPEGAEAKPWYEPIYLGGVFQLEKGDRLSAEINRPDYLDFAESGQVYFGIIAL", "assay": "cell-based or functional assay"}, "[6]": {"target": "T7, human complement component C1q (human, UniProt P02745 23-245; P02746 28-253; P02747 29-245)", "T7 construct": "Bought protein; also called human C1q", "T7 sequence (P02745 23-245 limits assumed, chain 1 of 3)": "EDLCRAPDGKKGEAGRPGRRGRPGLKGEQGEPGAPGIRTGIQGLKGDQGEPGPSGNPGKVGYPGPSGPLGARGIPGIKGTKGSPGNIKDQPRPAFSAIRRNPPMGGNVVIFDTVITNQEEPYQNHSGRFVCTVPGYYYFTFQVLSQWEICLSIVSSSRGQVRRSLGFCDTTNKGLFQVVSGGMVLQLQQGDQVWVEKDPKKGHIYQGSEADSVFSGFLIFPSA", "T7 sequence (P02746 28-253 limits assumed, chain 2 of 3)": "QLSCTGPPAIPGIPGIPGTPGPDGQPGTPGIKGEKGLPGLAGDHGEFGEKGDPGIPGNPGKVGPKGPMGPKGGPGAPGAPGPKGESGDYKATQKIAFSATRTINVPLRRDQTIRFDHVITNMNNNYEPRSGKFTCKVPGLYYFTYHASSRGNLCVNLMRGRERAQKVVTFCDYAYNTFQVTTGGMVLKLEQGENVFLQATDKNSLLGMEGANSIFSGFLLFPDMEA", "T7 sequence (P02747 29-245 limits assumed, chain 3 of 3)": "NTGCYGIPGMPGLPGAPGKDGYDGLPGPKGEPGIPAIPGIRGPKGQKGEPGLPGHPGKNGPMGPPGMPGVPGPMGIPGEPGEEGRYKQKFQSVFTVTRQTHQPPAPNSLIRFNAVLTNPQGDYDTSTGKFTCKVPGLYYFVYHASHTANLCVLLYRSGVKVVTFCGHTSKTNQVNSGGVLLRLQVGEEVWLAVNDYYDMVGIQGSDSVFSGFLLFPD", "assay": "ELISA, antibody coated on the plate (10 to 0.19 µg/mL), human C1q at 10 µg/mL, anti-C1q-HRP detection", "description": "Plates are incubated overnight at 4° C. with coating agent (to coat wells with antibody) followed with two hours of blocking (casein, 200 μL) at room temperature and then three washes with wash buffer (1×TBE with 0.05% Tween 20).\n100 μL of human C1q (10 μg/mL) (MS Biomedical) in casein blocking reagent is added to each well and plates are incubated for 3 hours at room temperature. Following incubation plates are washed three times followed by addition of 100 μL/well (at 1:800 dilution) of Sheep anti-human C1q-HRP (Abcam #ab46191) in casein blocker. Plates are incubated for 1 hour at RT. Following incubation, plates are washed 6 times with wash buffer, and 100 μL/well of TMB Substrate (Pierce) is added to each well. Plates are incubated for 7 minutes followed by addition of 100 μL of 1.0N HC1 to each well to stop the reaction. Optical density is immediately measured using a colorimetric microplate reader set to 450 nm."}, "[7]": {"target": "human FcγRIIIa (V158) on Jurkat NFAT-FF reporter cells (human, UniProt P08637 17-254)", "sequence (P08637 17-254 F176V limits assumed)": "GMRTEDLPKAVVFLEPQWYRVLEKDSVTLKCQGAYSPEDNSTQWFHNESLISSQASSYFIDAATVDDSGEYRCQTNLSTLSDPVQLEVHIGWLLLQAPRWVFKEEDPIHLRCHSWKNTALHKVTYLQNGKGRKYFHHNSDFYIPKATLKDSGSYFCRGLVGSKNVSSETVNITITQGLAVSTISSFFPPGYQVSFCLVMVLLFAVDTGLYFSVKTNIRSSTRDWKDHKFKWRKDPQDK", "assay": "cell-based or functional assay"}}}
{"binder": "B1", "values": [{"measurement": "Kd", "setting": "human TNFα [1]", "result": 0.0496, "unit": "nM"}, {"measurement": "koff", "setting": "human TNFα [1]", "result": 0.000155, "unit": "s⁻¹"}, {"measurement": "kon", "setting": "human TNFα [1]", "result": "3.1e+06", "unit": "M⁻¹ s⁻¹"}, {"measurement": "Kd", "setting": "human IL-23 [2]", "result": 0.245, "unit": "nM"}, {"measurement": "koff", "setting": "human IL-23 [2]", "result": 0.000101, "unit": "s⁻¹"}, {"measurement": "kon", "setting": "human IL-23 [2]", "result": 412000, "unit": "M⁻¹ s⁻¹"}, {"measurement": "Kd", "setting": "human FcγRIIIa (CD16a)", "result": 260, "unit": "nM"}, {"measurement": "Kd", "setting": "human FcγRIIb (CD32b)", "result": 4000, "unit": "nM"}, {"measurement": "Kd", "setting": "human FcγRIIa (CD32a)", "result": 720, "unit": "nM"}, {"measurement": "Kd", "setting": "human FcγRI (CD64)", "result": 0.0648, "unit": "nM"}, {"measurement": "IC50, inhibition of soluble human TNFα-induced killing of L929 cells (MTT)", "setting": "human TNFα [3]", "result": 0.32, "unit": "nM"}, {"measurement": "IC50, inhibition of IL-23-induced Stat 3 phosphorylation (luciferase) in Kit225 cells", "setting": "human IL-23 [4]", "result": 0.066, "unit": "pM"}, {"measurement": "IC50, inhibition of killing of L929 cells by CHO cells carrying non-cleavable membrane bound human TNFα (MTT)", "setting": "[5]", "result": 3.99, "unit": "nM"}, {"measurement": "relative EC50, human complement-mediated effector function (CDC) on CHO cells carrying non-cleavable human membrane TNFα (T74E construct as internal standard = 1)", "setting": "[5]", "result": "0.74 relative to internal standard"}, {"measurement": "binding result", "setting": "[6]", "result": "binds"}, {"measurement": "Relative EC50, induction of FcγRIIIa-mediated effector function (NFAT luciferase in Jurkat cells with CHO cells carrying non-cleavable human membrane TNFα; T74E construct as internal standard = 1)", "setting": "[7]", "result": "0.75 relative to internal standard"}]}
